The text below walks through data of patent publication US20140256614.

The test system of the data set is MK2-activating peptide (transduction domain YARAAARQARA coupled to a Kaposin-derived region).

“MK2 (endogenous, in rat pulmonary endothelial cells, RPMEC)”: the “HSP27 phosphorylation in RPMEC after MK2 siRNA knock-down against control siRNA” value was “MK2 siRNA reduced the level of MK2 in the cells and blocked the activity of the MK2-activating peptide”; the “phosphorylated HSP27 by immunoblot, time course at 50 µM peptide, RPMEC” value was “significant MK2 activation was observed by 15 minutes of treatment”.
